Laboratory results reported in paper PMC10267580.

B1: Rab6B^Q72L, GTPase domain (residues 8-176), constitutively active mutant [mouse] / ELKS1_RBD, Rab-binding domain of ELKS1 (residues 849-922) [rat] (parent)
chain 1: RKHLEEVLEMKQEALLAAISEKDANIALLELSSSKKKTQEEVAALKREKDRLVQQLKQQTQNRMKLMADNYEDD
chain 2: GNPLRKFKLVFLGEQSVGKTSLITRFMYDSFDNTYQATIGIDFLSKTMYLEDRTVRLQLWDTAGLERFRSLIPSYIRDSTVAVVVYDITNLNSFQQTSKWIDDVRTERGSDVIIMLVGNKTDLADKRQITIEEGEQRAKELSVMFIETSAKTGYNVKQLFRRVASALPG

Variants of: B1
Assay: ITC
Conditions: with ELKS1_RBD

Kd [µM]	Variant
> 50	chain 2 L4E

Same assay, conditions: with Rab6B^Q72L

Kd [µM]	Variant
26	chain 1 S20A
